Here are results for three substances from publication PMC8760278.

Assay [1] addresses properdin from human serum (human) (UniProt P27918).
The target is the same in assay [2]. The source holds these as a separate data set.
Assay [3] has as its target monomeric properdin lacking TSR domains 2 and 3 (FPΔ2,3) (human) (UniProt P27918). Briefly: MST; RED-NHS labelled FPΔ2,3 constant at 50 nM, CirpA1 2 nM to 64 uM; PBS, 0.05% Tween-20, pH 7.4; Monolith NT.115.
The target is the same in assay [4]. The assay is described as follows: SEC-MALS; FPΔ2,3 with added CirpA1; S200 10/300 column in PBS, 100 uL at 1 mg/mL.

Chain of UniProt P27918 (P27918 28-469): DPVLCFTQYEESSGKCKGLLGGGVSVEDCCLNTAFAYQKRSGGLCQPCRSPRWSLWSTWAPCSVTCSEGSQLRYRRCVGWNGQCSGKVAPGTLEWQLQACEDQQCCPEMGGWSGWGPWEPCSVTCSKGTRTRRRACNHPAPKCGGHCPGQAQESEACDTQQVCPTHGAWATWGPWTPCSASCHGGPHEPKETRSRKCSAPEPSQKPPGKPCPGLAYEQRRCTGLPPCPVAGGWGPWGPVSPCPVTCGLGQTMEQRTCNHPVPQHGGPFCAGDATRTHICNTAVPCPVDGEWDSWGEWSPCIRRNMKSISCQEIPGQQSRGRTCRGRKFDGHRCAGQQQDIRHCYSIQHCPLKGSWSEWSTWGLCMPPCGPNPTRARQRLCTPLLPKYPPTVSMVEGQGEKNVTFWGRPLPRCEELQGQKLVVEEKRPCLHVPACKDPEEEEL

For orientation: Kd means the free concentration of one partner at which half of the binding sites on the other are occupied at equilibrium, for simple one-to-one binding. High values mean weaker binding, low ones tighter binding. For the substance “CirpA1, recombinant, preparation not stated for the experiment (natural protein)”, the AP haemolysis assay, human serum, rabbit erythrocytes; CirpA1 purified from insect cells in assay [1] was 1.41e-08. In assay [2], this substance displayed an inhibition of the alternative pathway (MAC formation), WIESLAB assay, human serum of 13 nM. The substance also showed a Kd in assay [3] of 97 nM.

In assay [1], CirpA6 (natural protein) gave an AP haemolysis assay, human serum, rabbit erythrocytes of 1.4e-08.

In general, stoichiometry N refers to a count of units in the complex or per binding partner. Turning to “CirpA1 (Complement inhibitor from R. pulchellus of the alternative pathway 1), refolded (natural protein)”, in assay [4], the stoichiometry N was 1.
